± gives the standard deviation of the averaged measurements.
Test system: ATP
Experiment: switch fluorescence ratio, 500 uM ATP over buffer (Cy3 cluster intensity, sum of 5 cycles each) (fold (ratio)); higher = stronger signal-on switching upon ATP binding; sequences stand for … in TCGTCGGCAGCGTCAGATGTGTATAAGAGACAGTTTTTTTTTTTTTTTTTTTTTTTTT…TC
Conditions: aptamer strand: ATP DNA aptamer (quencher-CACCTGGGGGAGTATTGCGGAGGAAGG + anchor), 100 nM annealed; ATP concentration: 500 uM
Summary of the method: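 The fluorescence ratio divides summed target-cycle Cy3 intensity by summed buffer-cycle Cy3 intensity for each cluster and is averaged per switch-domain sequence. Cy3-labelled switching-strand clusters on a modified Illumina MiSeq flow-cell were annealed to 100 nM quencher-labelled ATP aptamer, then imaged in selection buffer and again after 15 min with 500 uM ATP at 22 °C. Five such cycles were run, with NaOH stripping and re-annealing between them, and clusters outside 100-1000 RFU were excluded.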
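Also: ATP exposure 15 min at 22 °C before imaging.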

Row | Sequence | switch fluorescence ratio
1 | GCGGTTCGTA | 0.9699 ± 0.0018
2 | GCGGTTTCAT | 0.9984 ± 0.0098
3 | GCGGTTTCCT | 1.02 ± 0.037
4 | GCGTAAAACG | 0.977 ± 0.04
5 | GCGTAAAATT | 0.9737 ± 0.0057
6 | GCGTAAGACC | 1.07 ± 0.06
7 | GCGTAAGCGG | 0.981 ± 0.017
8 | GCGTAAGGAG | 1.06 ± 0.096
9 | GCGTAGGGGG | 0.95 ± 0.046
10 | GCGTATACGC | 1.04 ± 0.041
11 | GCGTATATTA | 0.998 ± 0.036
12 | GCGTATCGCG | 0.985 ± 0.035
13 | GCGTCAGGAT | 1.0442 ± 0.00058
14 | GCGTCGAAGG | 0.981 ± 0.047
15 | GCGTGCGGGA | 1.02 ± 0.017
16 | GCGTGGGAGG | 1.018 ± 0.0053
17 | GCGTGGGATA | 1.03 ± 0.038
18 | GCGTGGGCGA | 1.03 ± 0.045
19 | GCGTGGGGCG | 0.996 ± 0.011
20 | GCGTGGTCTG | 0.971 ± 0.04
21 | GCGTGTGTTC | 1.08 ± 0.049
22 | GCGTGTTCGT | 1.031 ± 0.0084
23 | GCGTGTTGTG | 1.02 ± 0.018
24 | GCGTTAAGGA | 0.9835 ± 0.0056
25 | GCGTTACGGT | 1.02 ± 0.0057

Row | Sequence | switch fluorescence ratio
26 | GCGTTATCTT | 0.99586 ± 0.00081
27 | GCGTTATTGG | 1.03 ± 0.018
28 | GCGTTCGGGA | 0.984 ± 0.021
29 | GCGTTCTCGC | 0.968 ± 0.016
30 | GCGTTGAGCT | 0.987 ± 0.023
31 | GCGTTGATGA | 1.01 ± 0.019
32 | GCGTTGTGGG | 1.05 ± 0.024
33 | GCGTTTAGAT | 1.02 ± 0.013
34 | GCGTTTATGG | 1 ± 0.02
35 | GCGTTTGAGG | 0.981 ± 0.017
36 | GCGTTTGGG | 1.14 ± 0.15
37 | GCGTTTGGGG | 1.01 ± 0.043
38 | GCGTTTTACT | 1.034 ± 0.0051
39 | GCGTTTTTCG | 0.977 ± 0.042
40 | GCTAAAACCG | 1.06 ± 0.052
41 | GCTAAAGGGA | 1.03 ± 0.042
42 | GCTAACCGGG | 1 ± 0.0097
43 | GCTAACTAGG | 1.038 ± 0.0087
44 | GCTAAGGGGC | 1.03 ± 0.018
45 | GCTAAGTCGG | 0.982 ± 0.0085
46 | GCTAAGTTTA | 0.996 ± 0.025
47 | GCTAATTGGG | 1.004 ± 0.0021
48 | GCTACACGAA | 1.04 ± 0.027
49 | GCTACATGGG | 1.02 ± 0.015
50 | GCTACCTGGA | 1.19 ± 0.016

Row | Sequence | switch fluorescence ratio
51 | GCTACGCGCT | 1.36 ± 0.021
52 | GCTAGATGTA | 1.02 ± 0.015
53 | GCTAGTGGGG | 0.999 ± 0.018
54 | GCTATAATCG | 1.073 ± 0.0027
55 | GCTATCGGTT | 1.01 ± 0.024
56 | GCTATCTGCC | 1.075 ± 0.01
57 | GCTATGGTTA | 1 ± 0.013
58 | GCTATGTGTA | 0.9748 ± 0.0051
59 | GCTATTGGGG | 0.993 ± 0.014
60 | GCTATTGGTA | 1.01 ± 0.03
61 | GCTATTGTTG | 1.03 ± 0.021
62 | GCTATTTAGT | 1.0108 ± 0.00043
63 | GCTATTTTTG | 0.999 ± 0.04
64 | GCTCAACTAA | 1.02 ± 0.02
65 | GCTCAAGCTA | 1.15 ± 0.021
66 | GCTCCTCACA | 1.67 ± 0.2
67 | GCTCGAAATG | 1.07 ± 0.031
68 | GCTCGAACGA | 0.995 ± 0.013
69 | GCTCGAAGTT | 0.978 ± 0.029
70 | GCTCGCAGAT | 1.21 ± 0.042
71 | GCTCGCCTGA | 0.995 ± 0.025
72 | GCTCGGGGGC | 1.008 ± 0.0081
73 | GCTCGGGTGT | 1.15 ± 0.33
74 | GCTCGGTTAG | 1.01 ± 0.018
75 | GCTCGGTTG | 1.01 ± 0.022

Row | Sequence | switch fluorescence ratio
76 | GCTCGTATTA | 1 ± 0.016
77 | GCTCTATTTT | 0.997 ± 0.019
78 | GCTCTGGGTA | 1.05 ± 0.0082
79 | GCTCTTAGTG | 0.9894 ± 0.0032
80 | GCTCTTGATG | 0.98 ± 0.041
81 | GCTGACGGTT | 0.997 ± 0.024
82 | GCTGACTTGG | 0.9714 ± 0.0081
83 | GCTGAGCGGA | 0.995 ± 0.035
84 | GCTGAGGATA | 0.984 ± 0.013
85 | GCTGATATAA | 1.01 ± 0.019
86 | GCTGATCTTA | 0.998 ± 0.034
87 | GCTGATTTTT | 0.994 ± 0.025
88 | GCTGCAGGGG | 1.144 ± 0.0063
89 | GCTGCCACTA | 1.003 ± 0.004
90 | GCTGCCTAAA | 0.9809 ± 0.0019
91 | GCTGCGAGGT | 1.012 ± 0.0056
92 | GCTGCTAATA | 1.039 ± 0.01
93 | GCTGCTGCAC | 1.01 ± 0.049
94 | GCTGGAGTAT | 0.987 ± 0.026
95 | GCTGGCAATT | 1.027 ± 0.0069
96 | GCTGGGAATG | 0.98 ± 0.033
97 | GCTGGGAATT | 1 ± 0.016
98 | GCTGGGACGT | 1 ± 0.025
99 | GCTGGGACTT | 1.004 ± 0.0078
100 | GCTGGGAGGA | 1.02 ± 0.04

Row | Sequence | switch fluorescence ratio
101 | GCTGGGATTG | 1.01 ± 0.035
102 | GCTGGGGCCA | 1.023 ± 0.0017
103 | GCTGGGGGAT | 1 ± 0.044
104 | GCTGGGGGCG | 0.987 ± 0.025
105 | GCTGGGTAGT | 1.01 ± 0.022
106 | GCTGGTGATC | 1.02 ± 0.012
107 | GCTGGTGCAC | 1.01 ± 0.026
108 | GCTGGTTGTT | 1.03 ± 0.041
109 | GCTGTAAGTT | 0.9897 ± 0.0067
110 | GCTGTAATCT | 0.999 ± 0.027
111 | GCTGTAGCGG | 1.02 ± 0.031
112 | GCTGTATGTT | 0.974 ± 0.022
113 | GCTGTATTAA | 0.997 ± 0.038
114 | GCTGTGGATG | 1.02 ± 0.024
115 | GCTGTGGGTG | 1 ± 0.021
116 | GCTGTGTGGC | 1.01 ± 0.047
117 | GCTGTGTGTC | 1.006 ± 0.0024
118 | GCTGTGTTTT | 1 ± 0.034
119 | GCTGTTCAAG | 1 ± 0.026
120 | GCTGTTCCTC | 1.07 ± 0.011
121 | GCTGTTGGCG | 0.9728 ± 0.0043
122 | GCTGTTTCGG | 0.981 ± 0.01
123 | GCTGTTTTGT | 1.004 ± 0.0092
124 | GCTTAAAAAT | 0.986 ± 0.095
125 | GCTTAAAGAC | 1.1 ± 0.013

Row | Sequence | switch fluorescence ratio
126 | GCTTAAGTTA | 1 ± 0.057
127 | GCTTAATGTG | 0.968 ± 0.027
128 | GCTTACAACG | 1.02 ± 0.029
129 | GCTTACTCTG | 1.62 ± 0.085
130 | GCTTACTGCT | 0.947 ± 0.029
131 | GCTTATAGGC | 0.97 ± 0.032
132 | GCTTATCAGC | 0.991 ± 0.013
133 | GCTTATGGGA | 1 ± 0.039
134 | GCTTATTCAG | 0.976 ± 0.013
135 | GCTTATTGTA | 0.9813 ± 0.0081
136 | GCTTCAAGAC | 1.58 ± 0.0071
137 | GCTTCAGAGT | 1 ± 0.02
138 | GCTTCAGGAG | 1.27 ± 0.024
139 | GCTTCAGGCC | 1.02 ± 0.022
140 | GCTTCAGTAG | 1.11 ± 0.02
141 | GCTTCTGCGT | 1.02 ± 0.033
142 | GCTTCTTTTG | 1.09 ± 0.15
143 | GCTTGAAATT | 0.986 ± 0.062
144 | GCTTGCTCCG | 4.46 ± 0.87
145 | GCTTGGAGGG | 0.983 ± 0.027
146 | GCTTGGATCC | 0.966 ± 0.022
147 | GCTTGGATTG | 1.01 ± 0.054
148 | GCTTGGGTGC | 1.04 ± 0.067
149 | GCTTGTCTCG | 1 ± 0.053
150 | GCTTGTGTGA | 0.999 ± 0.01

Row | Sequence | switch fluorescence ratio
151 | GCTTGTTACG | 0.98379 ± 0.00012
152 | GCTTGTTGGG | 1.02 ± 0.038
153 | GCTTTATGTA | 0.975 ± 0.025
154 | GCTTTCATTG | 1.014 ± 0.0046
155 | GCTTTCCTTA | 0.991 ± 0.04
156 | GCTTTGGTGA | 0.991 ± 0.019
157 | GCTTTGGTTT | 0.983 ± 0.022
158 | GCTTTGTTGG | 0.984 ± 0.035
159 | GCTTTTAGAT | 0.9794 ± 0.0028
160 | GCTTTTAGGA | 1 ± 0.038
161 | GCTTTTCATT | 0.988 ± 0.038
162 | GCTTTTCTTG | 1.01 ± 0.011
163 | GCTTTTGGAG | 1.008 ± 0.0047
164 | GCTTTTGGCC | 0.971 ± 0.02
165 | GGAAAAAGGG | 1 ± 0.02
166 | GGAAAAGAGC | 0.991 ± 0.049
167 | GGAAAAGGCT | 1.02 ± 0.07
168 | GGAAAAGGGA | 1.01 ± 0.049
169 | GGAAAAGGTT | 0.9955 ± 0.0073
170 | GGAAACACAG | 1.02 ± 0.035
171 | GGAAACAGGA | 1.02 ± 0.05
172 | GGAAACCCGC | 1.14 ± 0.071
173 | GGAAACGCGA | 1.54 ± 0.093
174 | GGAAACTGGT | 1.05 ± 0.069
175 | GGAAAGTAAA | 0.982 ± 0.014

Row | Sequence | switch fluorescence ratio
176 | GGAAAGTCAG | 0.992 ± 0.027
177 | GGAAATACGA | 1.27 ± 0.036
178 | GGAAATCAGG | 0.989 ± 0.012
179 | GGAAATGGCG | 0.981 ± 0.1
180 | GGAAATTTGG | 0.993 ± 0.037
181 | GGAAATTTGT | 1.008 ± 0.0044
182 | GGAACACTGT | 0.9955 ± 0.0077
183 | GGAACAGAGG | 0.9769 ± 0.007
184 | GGAACATATA | 1.01 ± 0.0064
185 | GGAACCTTGG | 1.023 ± 0.0094
186 | GGAACCTTTT | 1.04 ± 0.041
187 | GGAACTCGCT | 1.02 ± 0.11
188 | GGAACTGGAG | 1.07 ± 0.031
189 | GGAAGAATAG | 1.02 ± 0.038
190 | GGAAGGAATG | 0.966 ± 0.0076
191 | GGAAGGCGGC | 1.08 ± 0.071
192 | GGAAGGGGGA | 1.07 ± 0.096
193 | GGAAGGGTCG | 1.04 ± 0.022
194 | GGAAGGGTTT | 1.03 ± 0.061
195 | GGAAGTAGCC | 0.959 ± 0.038
196 | GGAAGTGGGA | 1.018 ± 0.0069
197 | GGAAGTTCTA | 0.984 ± 0.016
198 | GGAAGTTTAA | 1 ± 0.02
199 | GGAATAAGGT | 1.01 ± 0.031
200 | GGAATAGAAA | 0.994 ± 0.033
